What is called Km is the concentration of substrate that gives half-maximal velocity. A word on the kcat: it is the maximal rate divided by the concentration of active sites.

The source of these data is paper PMC6941110, “Mutation of Aspartate 238 in FAD Synthase Isoform 6 Increases the Specific Activity by Weakening the FAD Binding” (International Journal of Molecular Sciences, 2019).

Common to all, as to test: purified protein
Holding throughout (format): biochemical, Homo sapiens

For data set [1], the system named is T1, Cc1cc2nc3c(=O)[nH]c(=O)nc-3n(C[C@H](O)[C@H](O)[C@H](O)COP(=O)(O)O)c2cc1C.
T1 construct: 320-residue isoform 6, FADSy domain only, lacks N-terminal FADHy domain; monomer
Conditions: forward reaction, 100 µM ATP, 5 mM MgCl2, 50 mM Tris/HCl pH 7.5, 37 °C.

The subject of data set [2] is T2, Nc1ncnc2c1ncn2[C@@H]1O[C@H](COP(=O)(O)OP(=O)(O)OP(=O)(O)O)[C@@H](O)[C@H]1O.
T2 construct: 320-residue isoform 6, FADSy domain only, lacks N-terminal FADHy domain; monomer
Particulars: forward reaction, 5 mM MgCl2, 50 mM Tris/HCl pH 7.5, 37 °C.

For a further data set, the system named is T3, O=P(O)(O)OP(=O)(O)O.
T3 construct: 320-residue isoform 6, FADSy domain only, lacks N-terminal FADHy domain; monomer
Conditions: reverse reaction, 0.5 µM FAD, 5 mM MgCl2, 50 mM Tris/HCl pH 7.5, 37 °C.

hFADS6 (human FAD synthase isoform 6) (Homo sapiens; D505A), sequence (chain, as listed by the source D505A): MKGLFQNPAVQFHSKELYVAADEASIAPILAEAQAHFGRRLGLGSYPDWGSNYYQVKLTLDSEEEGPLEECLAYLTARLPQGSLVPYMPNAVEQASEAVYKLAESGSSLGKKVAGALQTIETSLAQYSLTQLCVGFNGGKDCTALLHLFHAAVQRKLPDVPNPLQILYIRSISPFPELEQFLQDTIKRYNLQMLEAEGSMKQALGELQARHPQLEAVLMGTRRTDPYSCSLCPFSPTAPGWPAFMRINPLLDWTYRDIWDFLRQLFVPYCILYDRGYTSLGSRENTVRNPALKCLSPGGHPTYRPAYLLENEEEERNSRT
hFADS6 (human FAD synthase isoform 6) (Homo sapiens), sequence (chain, as listed by the source): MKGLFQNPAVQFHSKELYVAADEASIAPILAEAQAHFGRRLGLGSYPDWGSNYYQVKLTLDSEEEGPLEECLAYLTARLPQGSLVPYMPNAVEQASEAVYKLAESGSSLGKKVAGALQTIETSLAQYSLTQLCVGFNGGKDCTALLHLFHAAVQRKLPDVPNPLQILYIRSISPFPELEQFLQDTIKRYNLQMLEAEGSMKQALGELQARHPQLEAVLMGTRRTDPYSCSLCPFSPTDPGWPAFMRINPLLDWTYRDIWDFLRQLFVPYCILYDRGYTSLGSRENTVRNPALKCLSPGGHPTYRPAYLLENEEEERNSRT

For “hFADS6 (human FAD synthase isoform 6) (Homo sapiens)”, the Michaelis-Menten constant (Km) in data set [1] was found to be 0.13 ± 0.01 µM; in data set [2] (2 µM FMN) it was 6.9 ± 0.5 µM; in the data set with O=P(O)(O)OP(=O)(O)O it was 42 ± 6 µM. Besides, the kcat in data set [1] was 0.047 ± 0.001 s⁻¹; in data set [2] (2 µM FMN) it was 0.050 ± 0.001 s⁻¹.
“hFADS6 (human FAD synthase isoform 6) (Homo sapiens; D505A)”: the Km was found to be 1.3 ± 0.3 µM in data set [1], 44 ± 4 µM in data set [2] (3 µM FMN) and 60 ± 8 µM in the data set with O=P(O)(O)OP(=O)(O)O. For the same substance, the kcat in data set [1] stood at 0.103 ± 0.007 s⁻¹; in data set [2] (3 µM FMN), 0.093 ± 0.003 s⁻¹.
